Experimental data reported in article PMC3366918.

Columns and labels:
[1] = molecular target: HIV-1 Rev wildtype, fused at its carboxy terminus to CFP (donor) or YFP (acceptor) (HIV-1 strain HXB3); experiment: FRET or BRET
[2] = molecular target: ZipRevSLT40: yeast GCN4 leucine zipper fused to the amino terminus of RevSLT40, with CFP or YFP at the carboxy terminus (yeast | HIV-1 strain HXB3); experiment: FRET or BRET

Substance	percent FRET positive cells [1]	percent FRET positive cells [2]
HIV-1 Rev wildtype, fused at its carboxy terminus to CFP (donor) or YFP (acceptor) (natural protein)	80.3%	
ZipRevSLT40: yeast GCN4 leucine zipper fused to the amino terminus of RevSLT40, with CFP or YFP at the carboxy terminus		41.9%
